T1: monkey C5-mmh (monkey, UniProt P01031 19-1676 (human entry), limits assumed)
T1 construct: recombinant, with C-terminal myc-myc-hexahistidine tag
T1 chain: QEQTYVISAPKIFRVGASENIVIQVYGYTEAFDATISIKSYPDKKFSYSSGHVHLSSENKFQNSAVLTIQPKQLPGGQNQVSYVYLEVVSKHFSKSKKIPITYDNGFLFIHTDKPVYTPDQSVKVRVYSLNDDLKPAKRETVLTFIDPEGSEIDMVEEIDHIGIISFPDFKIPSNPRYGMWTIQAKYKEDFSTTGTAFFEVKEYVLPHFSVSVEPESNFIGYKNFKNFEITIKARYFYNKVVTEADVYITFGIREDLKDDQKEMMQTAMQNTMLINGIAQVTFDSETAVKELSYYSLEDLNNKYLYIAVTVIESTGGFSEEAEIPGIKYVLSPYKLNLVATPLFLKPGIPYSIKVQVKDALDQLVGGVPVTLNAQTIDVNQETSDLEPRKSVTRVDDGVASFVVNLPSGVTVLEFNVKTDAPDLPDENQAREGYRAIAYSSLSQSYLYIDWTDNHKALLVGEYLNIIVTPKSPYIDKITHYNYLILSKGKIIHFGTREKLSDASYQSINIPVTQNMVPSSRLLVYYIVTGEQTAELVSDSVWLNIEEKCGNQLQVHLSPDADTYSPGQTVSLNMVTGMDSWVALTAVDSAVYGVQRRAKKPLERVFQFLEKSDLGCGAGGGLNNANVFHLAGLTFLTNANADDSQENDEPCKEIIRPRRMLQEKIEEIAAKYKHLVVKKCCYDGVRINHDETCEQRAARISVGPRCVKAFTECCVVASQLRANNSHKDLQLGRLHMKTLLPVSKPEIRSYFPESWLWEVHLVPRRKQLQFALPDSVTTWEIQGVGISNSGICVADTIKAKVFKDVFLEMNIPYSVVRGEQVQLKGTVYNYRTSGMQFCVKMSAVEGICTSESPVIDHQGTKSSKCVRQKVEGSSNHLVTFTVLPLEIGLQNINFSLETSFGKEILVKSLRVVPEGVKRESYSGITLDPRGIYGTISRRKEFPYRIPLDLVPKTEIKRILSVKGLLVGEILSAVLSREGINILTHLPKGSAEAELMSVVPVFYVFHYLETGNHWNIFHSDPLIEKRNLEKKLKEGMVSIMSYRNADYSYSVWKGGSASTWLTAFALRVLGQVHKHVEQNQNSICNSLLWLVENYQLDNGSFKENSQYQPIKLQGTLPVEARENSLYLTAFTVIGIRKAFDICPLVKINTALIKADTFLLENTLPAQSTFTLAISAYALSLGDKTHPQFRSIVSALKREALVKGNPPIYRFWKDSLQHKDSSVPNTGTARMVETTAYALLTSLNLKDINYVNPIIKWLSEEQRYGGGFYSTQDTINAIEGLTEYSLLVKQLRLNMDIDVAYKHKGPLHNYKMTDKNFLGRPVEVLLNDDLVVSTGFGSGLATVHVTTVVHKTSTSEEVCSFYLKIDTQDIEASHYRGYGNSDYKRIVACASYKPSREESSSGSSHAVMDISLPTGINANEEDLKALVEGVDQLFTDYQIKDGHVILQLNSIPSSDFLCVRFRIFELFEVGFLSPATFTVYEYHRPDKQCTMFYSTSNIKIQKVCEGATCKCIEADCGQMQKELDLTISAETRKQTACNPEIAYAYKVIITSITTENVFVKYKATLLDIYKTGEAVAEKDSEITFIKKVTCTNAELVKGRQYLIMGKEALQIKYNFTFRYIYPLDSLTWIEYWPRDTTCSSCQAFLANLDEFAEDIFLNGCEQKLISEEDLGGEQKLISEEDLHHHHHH


Key:
human C5 [1] = molecular target: T2, human C5 (human, UniProt P01031 19-1676); test: cell-based or functional assay
African green monkey C5 [2] = molecular target: T3, African green monkey C5 (African green monkey); test: cell-based or functional assay
human C5 R885H-mmh = human C5 R885H-mmh (human, UniProt P01031 19-1676); test: cell-based or functional assay
human C5 R885C-mmh = human C5 R885C-mmh (human, UniProt P01031 19-1676); test: cell-based or functional assay
human C5 [3] = molecular target: T2, human C5; test: cell-based or functional assay; remark: listed apart in the source
African green monkey C5 [4] = molecular target: T3, African green monkey C5; test: cell-based or functional assay; remark: listed apart in the source
Cynomolgus monkey C5 = Cynomolgus monkey C5 (cynomolgus monkey, UniProt A0A2K5U1T1 19-1676); test: cell-based or functional assay
human C5 [5] = molecular target: T2, human C5; test: SPR (Biacore), mAb captured, dissociation of human C5 at pH7.4 vs pH6.0, 37°C
Experimental: Effect of pH on the rate of dissociation of recombinant human C5 bound to purified anti-C5 monoclonal antibodies was determined using a real-time surface plasmon resonance biosensor using a Biacore T200 instrument. The Biacore sensor surface was first derivatized by amine coupling with a monoclonal mouse anti-human Fc antibody (GE, # BR-1008-39) to capture anti-C5 monoclonal antibodies expressed with human IgG4 Fc. All Biacore binding studies were performed using two running buffers PBS-T, pH7.4 (0.01M Na₂HPO₄/NaH₂PO₄, 0.15M NaCl, 0.05% v/v Tween-20, adjusted to pH7.4) and PBS-T, pH6.0 (0.01M Na₂HPO₄/NaH₂PO₄, 0.15M NaCl, 0.05% v/v Tween-20, adjusted to pH6.0). […] Binding dissociative half-lives (t %) were calculated from kd as: […]

monkey C5-mmh [6] = molecular target: T1, monkey C5-mmh; test: SPR (Biacore), mAb captured, dissociation of monkey C5 at pH7.4 vs pH6.0, 25°C
monkey C5-mmh [7] = molecular target: T1, monkey C5-mmh; test: SPR (Biacore), mAb captured, dissociation of monkey C5 at pH7.4 vs pH6.0, 37°C

Binder | IC50, inhibition of CDC of Daudi cells, 1.66% human serum (human C5 [1]) | IC50, inhibition of CDC of Daudi cells, 1.66% African Green monkey serum (African green monkey C5 [2]) | IC50, inhibition of CDC of Daudi cells, C5 depleted human serum and 6.6 nM C5 Variant R885H (human C5 R885H-mmh) | IC50, inhibition of CDC of Daudi cells, C5 depleted human serum and 6.6 nM C5 Variant R885C (human C5 R885C-mmh) | t½ Ratio pH7.4/pH6.0 (human C5 [5]) | t½ Ratio pH7.4/pH6.0 (monkey C5-mmh [6]) | t½ Ratio pH7.4/pH6.0 (monkey C5-mmh [7]) | Human AP % Max Inhibition, hemolysis assay, NHS (human C5 [3]) | Human AP IC50, hemolysis assay, NHS (human C5 [3]) | Human CP % Max Inhibition, hemolysis assay, NHS (human C5 [3]) | Human CP IC50, hemolysis assay, NHS (human C5 [3]) | AGM AP % Max Inhibition, hemolysis assay, 5% serum (African green monkey C5 [4]) | AGM CP % Max Inhibition, hemolysis assay, 5% serum (African green monkey C5 [4]) | AGM Serum AP IC50, hemolysis assay, 5% serum (African green monkey C5 [4]) | AGM Serum CP IC50, hemolysis assay, 5% serum (African green monkey C5 [4]) | Cyno AP % Max Inhibition, hemolysis assay, 5% serum (Cynomolgus monkey C5) | Cyno CP % Max Inhibition, hemolysis assay, 5% serum (Cynomolgus monkey C5) | Cyno Serum AP IC50, hemolysis assay, 5% serum (Cynomolgus monkey C5) | Cyno Serum CP IC50, hemolysis assay, 5% serum (Cynomolgus monkey C5)
H4H11683N (antibody, human IgG4, V domains shown, tested with H4H prefix (human IgG4 Fc with S108P hinge mutation); variable regions follow the numerical identifier; also called H2M11683N) VH: QVQLVESGGGVVQPGRSLRLSCVASGFTFSSYGIHWVRQAPGKGLEWVAVIWDDGNNINYSDSVKGRFIISRDNSRKTVYLQMNSLRGEDTAVYYCARDAPIAPVPDYWGQGTLVTVSS VL: DIQMTQSPSTLSASVGDRVTITCRASQSISSWLAWYQQKPGKAPKLLIYKASSLDTGVPSRFSGSGSGTEFTLTISSLQPDDFATYYCQQYNTYSYTFGLGTKLEIK | 1.2 nM | 4 nM | 1.3 nM | 0.9 nM | 1.4 | 0.34 | 0.7 | 73.2% | 34 nM | 98.1% | 2.54 nM | 88.1% | 81.1% | 40.8 nM | 29.2 nM | 98.9% | 98.8% | 7.15 nM | 9 nM
H4H12177P2 (antibody, human IgG4, V domains shown, H4H: human IgG4 Fc with S108P hinge mutation) VH: EVQLVESGGGVVQRGESLRLSCSASDFIFKDYAMYWVRQIPGKGLEWISLISGDGDTTWYGDSVKGRFTISRDNNENSLFLQMNDLRTEDTAMYYCARDMGWNFFQLQYWGQGTLVTVSS VL: not shown | 2.2 nM | 6.1 nM | 2.4 nM | 1.6 nM | 1.3 | 3.7 | 1.5 | 71% | 17 nM | 97.5% | 2.34 nM | 8.8% | 80.6% | 101 nM | 180 nM | 98.1% | 94.9% | 8.8 nM | 17.1 nM

The next lines start with results.

IC50, inhibition of CDC of Daudi cells, 1.66% human serum (human C5 [1]) | IC50, inhibition of CDC of Daudi cells, 1.66% African Green monkey serum (African green monkey C5 [2]) | IC50, inhibition of CDC of Daudi cells, C5 depleted human serum and 6.6 nM C5 Variant R885H (human C5 R885H-mmh) | IC50, inhibition of CDC of Daudi cells, C5 depleted human serum and 6.6 nM C5 Variant R885C (human C5 R885C-mmh) | t½ Ratio pH7.4/pH6.0 (human C5 [5]) | t½ Ratio pH7.4/pH6.0 (monkey C5-mmh [6]) | t½ Ratio pH7.4/pH6.0 (monkey C5-mmh [7]) | Binder | Human AP % Max Inhibition, hemolysis assay, NHS (human C5 [3]) | Human AP IC50, hemolysis assay, NHS (human C5 [3]) | Human CP % Max Inhibition, hemolysis assay, NHS (human C5 [3]) | Human CP IC50, hemolysis assay, NHS (human C5 [3]) | AGM AP % Max Inhibition, hemolysis assay, 5% serum (African green monkey C5 [4]) | AGM CP % Max Inhibition, hemolysis assay, 5% serum (African green monkey C5 [4]) | AGM Serum AP IC50, hemolysis assay, 5% serum (African green monkey C5 [4]) | AGM Serum CP IC50, hemolysis assay, 5% serum (African green monkey C5 [4]) | Cyno AP % Max Inhibition, hemolysis assay, 5% serum (Cynomolgus monkey C5) | Cyno CP % Max Inhibition, hemolysis assay, 5% serum (Cynomolgus monkey C5) | Cyno Serum AP IC50, hemolysis assay, 5% serum (Cynomolgus monkey C5) | Cyno Serum CP IC50, hemolysis assay, 5% serum (Cynomolgus monkey C5)
3.2 nM | 3.4 nM | 1.4 nM | 1 nM | ≤ 0.2 | 1.2 | 6.3 | H4H12159P (antibody, human IgG4, V domains shown, H4H: human IgG4 Fc with S108P hinge mutation) VH: QVQLVESGGGVVQPGRSLRLSCGASGFTFSTYGMHWVRQAPGKGLEWVAVIWDDGNNKYYADSVKGRFTISRDNSKNTLYLQMNSLRAEDTAVYYCARDSEVAPVGDYWGQGTLVTVSS VL: DIQMTQSPSTLSASVGDRVTIICRASQSINRWLAWYQQKPGKAPKLLIYKASSLESGVPSRFSGSGSGTEFTLTISSLQPDDFAAYYCQQYNDYSYTFGQGTKLEIK | 73.4% | 17.5 nM | 97.9% | 2.5 nM | 93.5% | 93.4% | 27 nM | 25.8 nM | 99.6% | 99.3% | 7.05 nM | 7.75 nM
3.4 nM | 3.7 nM | 2.1 nM | 1.1 nM | 0.8 | 9.7 | 3.3 | H4H12163P (antibody, human IgG4, V domains shown, H4H: human IgG4 Fc with S108P hinge mutation) VH: EVQLVESGGDLVQPGGSLRLSCAASGFTFSSYAMNWVRQGPGKGLEWVSAISGRGDSTYYADSVKGRLTISRDNSKNTLYLQMNSLRAEDTAVYYCVKEGEQLVYWYFDLWGRGTLVTVSS VL: DIQMTQSPSSLSASVGDRVTITCRASQTISNFLHWYQQKPGKAPKLLIYAASSLQSGVPSRFSGSGSGTDFTLTISSLQPEDFSTYFCQQSYTTPLTFGGGTKVEIK | 66% | 20.5 nM | 96.1% | 2.72 nM | 58.5% | 83.2% | 216 nM | 69 nM | 98.5% | 96.4% | 10.2 nM | 16.5 nM
